From patent US20220411536A1 (NUMAB THERAPEUTICS, published 2022)
Numbering of substitutions follows the chain as printed. In names and notes the source's numbering stands. Values belong to the binder of their own block, whether it stands above or below them.

Columns and labels:
[1] = molecular target: T1, CD3e on Jurkat PD-1 NFAT reporter T cells or on T cells of human PBMCs (human, UniProt P07766 23-207); assay: cell-based or functional assay
[2] = molecular target: T1, CD3e on Jurkat PD-1 NFAT reporter T …; assay: cell-based or functional assay; remark: listed apart in the source
[3] = molecular target: T2, human PD-L1 expressed on cells (CHO-PD-L1, HCC1954, HCC827) (human, UniProt Q9NZQ7 19-290); assay: flow cytometry, inhibition of biotinylated PD-1 binding to HCC827 cells
T2 construct: whole, on cells; also called hPD-L1; PD-L1 expressing cells

[4] = molecular target: T2, human PD-L1 expressed on cells …; assay: flow cytometry, inhibition of biotinylated PD-1 binding to HCC1954 cells
[5] = molecular target: T3, recombinant human IL-23R (custom-made by Trenzyme) (human, UniProt Q5VWK5 24-355); assay: SPR, immobilised IL-23R
T3 sequence (looked up): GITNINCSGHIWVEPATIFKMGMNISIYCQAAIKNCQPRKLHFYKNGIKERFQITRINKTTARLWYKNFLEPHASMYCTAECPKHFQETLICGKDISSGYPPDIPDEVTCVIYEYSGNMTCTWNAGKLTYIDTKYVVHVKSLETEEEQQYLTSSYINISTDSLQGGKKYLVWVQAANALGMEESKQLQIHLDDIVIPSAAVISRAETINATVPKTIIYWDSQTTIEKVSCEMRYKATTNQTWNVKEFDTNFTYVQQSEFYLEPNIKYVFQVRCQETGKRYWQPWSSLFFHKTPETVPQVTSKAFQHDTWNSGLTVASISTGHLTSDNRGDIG

[6] = molecular target: T4, recombinant human Her2 ECD (SinoBiological, cat. 10004-HCCH) (human, UniProt P04626 23-652); assay: SPR, immobilised Her2 ECD
T4 construct: extracellular domain; bought protein

[7] = molecular target: T5, Fc-tagged human PD-L1 extracellular domain (SinoBiological, cat. 10084-H02H) (human, UniProt Q9NZQ7 19-238); assay: SPR, captured Fc-PD-L1 ECD, kinetic
T5 construct: extracellular domain; also called hPD-L1; not shown: Fc tag of the bought protein

[8] = molecular target: T6, recombinant human CD3E ECD (SinoBiological, cat. 10977-H08H) (human, UniProt P07766 23-126); assay: SPR, immobilised CD3e ECD, two-state model
T6 construct: extracellular domain; bought protein; also called CD3s
T6 sequence (P07766 23-126): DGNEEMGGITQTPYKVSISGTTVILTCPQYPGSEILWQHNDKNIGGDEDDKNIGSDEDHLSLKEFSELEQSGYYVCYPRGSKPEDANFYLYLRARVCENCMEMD

[9] = molecular target: T6, recombinant human CD3E ECD …; assay: SPR, immobilised CD3e ECD, two-state model (ka1)
[10] = molecular target: T6, recombinant human CD3E ECD …; assay: SPR, immobilised CD3e ECD, two-state model (kd1)
[11] = molecular target: CD137 on transgenic NF-kB Jurkat reporter cells (Homo sapiens (Human), UniProt Q07011 24-255); assay: cell-based or functional assay
[12] = molecular target: T2, human PD-L1 expressed on cells …; assay: flow cytometry with human SA, inhibition of PD-1 binding to HCC827 cells
[13] = molecular target: T2, human PD-L1 expressed on cells …; assay: flow cytometry with human SA, inhibition of PD-1 binding to HCC1954 cells
[14] = molecular target: T2, human PD-L1 expressed on cells …; assay: cell-based or functional assay
[15] = molecular target: T2, human PD-L1 expressed on cells …; assay: flow cytometry, CHO-PD-L1 cells
[16] = molecular target: T5, Fc-tagged human PD-L1 extracellular …; assay: SPR, captured Fc-PD-L1 ECD, scFv analyte, kinetic
[17] = molecular target: T5, Fc-tagged human PD-L1 extracellular …; assay: SPR, alanine mutants of 33-03-G02

EC50, NFkB reporter gene assay, HCC1954 cells [11]: 0.661 nM
IC50 [12]: 6.72 µg/mL
IC50 [13]: 1.42 µg/mL
B4: PRO1778 (multispecific antibody)
chain 1: not shown
chain 2: DVVMTQSPSSLSASVGDRVTITCQASQIISSRSAWYQQKPGQPPKLLIYQASKLASGVPSRFSGSGSGTDFTLTISSLQPEDFATYYCQCTYIDSNFGAFGGGTKLTVLGGGGGSGGGGSGGGGSGGGGSEVQLVESGGGLVQPGGSLRLSCAASGFSFSSSYWICWVRQAPGKGLEWVGCVFTGDGTTYYASWAKGRFTISRDNSKNTVYLQMNSLRAEDTATYFCARPVSVYYYGMDLWGQGTLVTVSSGGGGSGGGGSQVQLQESGPGLVKPSETLSLTCKVSGFSFSSGYDMCWIRQPPGKGLEWIGCVVAGSVDITYYASWAKGRVTISVDSSKNQFSLKLSSVTAADTAVYYCARKDAYSDAFNLWGQGTLVTVSSGGGSGGGSEVQLVESGGGLVQPGGSLRLSCAASGFSFSANYYPCWVRQAPGKCLEWIGCIYGGSSDITYDANWTKGRFTISRDNSKNTVYLQMNSLRAEDTAVYYCARSAWYSGWGGDLWGQGTLVTVSS

IC50, neutralization of PD-L1 in NF-AT potency assay [14]: 0.828 µg/mL
fold reduction of affinity vs the original domain [17]: > 100 fold
EC50 [15]: 333 µg/mL
Kd [16]: 12.2 nM
koff [16]: 0.0205 s⁻¹
kon [16]: 1.67e+06 M⁻¹ s⁻¹
B6: PRO1075 (scFv, V domains shown)
VH: QVQLQESGPGLVKPSETLSLTCKVSGFSFSSGYDMCWIRQPPGKGLEWIGCVVAGSVDITYYASWAKGRVTISVDSSKNQFSLKLSSVTAADTAVYYCARKDAYSDAFNLWGQGTLVTVSS
VL: DIQMTQSPSSLSASVGDRVTITCQASQSINDYLAWYQQKPGKAPKLLIYKASTLASGVPSRFSGSGSGTDFTLTISSLQPEDFATYYCQAGYIITDIDNVFGTGTKVTVLG
notes: also called 33-03-G02 VL-Q108A

IC50, neutralization of PD-L1 in NF-AT potency assay [14]: 1.28 µg/mL
fold reduction of affinity vs the original domain [17]: > 100 fold
EC50 [15]: 51.2 µg/mL
Kd [16]: 16.5 nM
koff [16]: 0.0328 s⁻¹
kon [16]: 1.99e+06 M⁻¹ s⁻¹
B7: PRO1089 (scFv, V domains shown)
VH: B6 VH with Y104A
VL: B6 VL with A90Q
notes: also called 33-03-G02 VH-Y112A

More lines, now with the values behind:

B1: PRO1455 (multispecific antibody)
chain 1: DIQMTQSPSSLSASVGDRVTITCQASENIYSFLAWYQQKPGKAPKLLIYSASKLAAGVPSRFSGSGSGTDFTLTISSLQPEDFATYYCQQTNRYSNPDIYNVFGTGTKVTVLGTVAAPSVFIFPPSDEQLKSGTASVVCLLNNFYPREAKVQWKVDNALQSGNSQESVTEQDSKDSTYSLSSTLTLSKADYEKHKVYACEVTHQGLSSPVTKSFNRGECGGGGSGGGGSDIQMTQSPSSLSASVGDRVTITCQSSQSVFSNNYLAWFQQKPGQSPKRLIYSASTLASGVPSRFSGSGSGTDFTLTISSLQPEDFATYYCLGSYACSSADCYVFGTGTKVTVLGGGGGSGGGGSGGGGSGGGGSEVQLVESGGGLVQPGGSLRLSCAASGFSLSSYDMSWVRQAPGKGLAWIGASYASGPTYYASWAKGRFTISRDNSKNTVYLQMNSLRAEDTATYFCARGGWTGTSHSNIWGQGTLVTVSS
chain 2: EVQLVESGGGLVQPGGSLRLSCAASGIDFNSNYYMCWVRQAPGKGLEWIGCIYVGSHVNTYYANWAKGRFTISRDNSKNTVYLQMNSLRAEDTAVYYCATSGSSVLYFKFWGQGTLVTVSSASTKGPSVFPLAPSSKSTSGGTAALGCLVKDYFPEPVTVSWNSGALTSGVHTFPAVLQSSGLYSLSSVVTVPSSSLGTQTYICNVNHKPSNTKVDKKVEPKSCGGGGSGGGGSDIQMTQSPSSLSASVGDRVTITCQASQSINDYLAWYQQKPGKAPKLLIYKASTLASGVPSRFSGSGSGTDFTLTISSLQPEDFATYYCQQAYIITDIDNVFGTGTKVTVLGGGGGSGGGGSGGGGSGGGGSQVQLQESGPGLVKPSETLSLTCKVSGFSFSSGYDMCWIRQPPGKGLEWIGCVVAGSVDITYYASWAKGRVTISVDSSKNQFSLKLSSVTAADTAVYYCARKDAYSDAFNLWGQGTLVTVSS
fold weaker activation than PRO1454, NFAT reporter, HCC1954 cells [1]: 27 fold
IC50, NFAT reporter, HCC1954 cells [2]: 4.07 nM
IC50 [3]: 2.8 µg/mL
IC50 [4]: 2.85 µg/mL

B2: PRO1498 (multispecific antibody)
chain 1: B1 chain 1
chain 2: B1 chain 2 with Q324A
fold weaker activation than PRO1497, NFAT reporter, HCC1954 cells [1]: 475 fold
IC50, NFAT reporter, HCC1954 cells [2]: 172 nM
rel. max. activation vs PRO1497, NFAT reporter, HCC1954 cells [2]: 71%
Kd [5]: 0.563 nM
koff [5]: 0.000278 s⁻¹
kon [5]: 495000 M⁻¹ s⁻¹
binding result [6]: no binding (tested: 90 nM highest concentration)
Kd [7]: 332 nM
koff [7]: 0.000379 s⁻¹
kon [7]: 1140 M⁻¹ s⁻¹
KD1 [8]: 29.6 nM
Kd [8]: 19.5 nM
kd2 [8]: 0.00198 s⁻¹
kon [9]: 197000 M⁻¹ s⁻¹
koff [10]: 0.00584 s⁻¹
IC50 [3]: 8.54 µg/mL
IC50 [4]: 7.05 µg/mL

B3: PRO1780 (multispecific antibody)
chain 1: not shown
chain 2: DIQMTQSPSSLSASVGDRVTITCQASQSISNRLAWYQQKPGKAPKLLIYSASTLASGVPSRFSGSGSGTDFTLTISSLQPEDFATYYCQSTYYGNDGNAFGCGTKVTVLGGGGGSGGGGSGGGGSGGGGSEVQLVESGGGLVQPGGSLRLSCAASGFSFSANYYPCWVRQAPGKCLEWIGCIYGGSSDITYDANWTKGRFTISRDNSKNTVYLQMNSLRAEDTAVYYCARSAWYSGWGGDLWGQGTLVTVSSGGGGSGGGGSQVQLQESGPGLVKPSETLSLTCKVSGFSFSSGYDMCWIRQPPGKGLEWIGCVVAGSVDITYYASWAKGRVTISVDSSKNQFSLKLSSVTAADTAVYYCARKDAYSDAFNLWGQGTLVTVSSGGGSGGGSEVQLVESGGGLVQPGGSLRLSCAASGFSFSSSYWICWVRQAPGKCLEWVGCVFTGDGTTYYASWAKGRFTISRDNSKNTVYLQMNSLRAEDTATYFCARPVSVYYYGMDLWGQGTLVTVSS
EC50, NFkB reporter gene assay, HCC1954 cells [11]: 0.603 nM
IC50 [12]: 32.6 µg/mL
IC50 [13]: 0.695 µg/mL

B5: PRO830 (scFv, V domains shown)
VH: B6 VH
VL: B6 VL with A90Q
notes: also called 33-03-G02; parental scFv
IC50, neutralization of PD-L1 in NF-AT potency assay [14]: 0.0204 µg/mL
EC50 [15]: 0.0055 µg/mL
Kd [16]: 0.0781 nM
koff [16]: 0.000139 s⁻¹
kon [16]: 1.78e+06 M⁻¹ s⁻¹
